According to patent publication US20220064295A1 (ITABMED HK, published 2022):

B1: ITAB2009 CD19×CD3 MSAP (bispecific antibody)
chain 1: EVQLVESGGGLVQPGGSLRLSCAASGFTFNTYAMNWVRQAPGKGLEWVARIRSKYNNYATYYADSVKDRFTISRDDSKNTLYLQMNSLRAEDTAVYYCVRHGNFGNSYVSWFAYWGQGTMVTVSSGGGGSGGGGSGGGGSQAVVTQEPSLTVSPGGTVTLTCRSSTGAVTTSNYANWVQQKPGQAPRGLIGGTNKRAPGTPARFSGSLLGGKAALTLSGVQPEDEAEYYCALWYSNLWVFGGGTKLTVLSGGGGSQVQLVQSGPELIKPGGSVKMSCKASGYTFTSYVMHWVRQKPGQGLEWIGYINPYNDGTKYNEKFKGRATLTSDKSSSTAYMELSSLRSEDSAVYYCARGTYYYGSRVFDYWGQGTTVTVSSASTKGPSVFPLAPSSKSTSGGTAALGCLVKDYFPEPVTVSWNSGALTSGVHTFPAVLQSSGLYSLSSVVTVPSSSLGTQTYICNVNHKPSNTKVDKKVEPKSCPPCS
chain 2: DVVMTQSPSSIPVTLGESVSISCRSSKSLQNVNGNTYLYWFQQRPGQSPQLLIYRMSNLNSGVPDRFSGSGSGTDFTLRISGVEPEDVGVYYCMQHLEYPITFGAGTKLEIKRTVAAPSVFIFPPSDEQLKSGTASVVCLLNNFYPREAKVQWKVDNALQSGNSQESVTEQDSKDSTYSLSSTLTLSKADYEKHKVYACEVTHQGLSSPVTKSFNRGECPPCS
notes: also called CD19×CD3 MSAP ITAB2009; bivalent format ITAB2009
B2: ITAB2007 CD19×CD3 MSAP (bispecific antibody)
chain 1: DVVMTQSPSSIPVTLGESVSISCRSSKSLQNVNGNTYLYWFQQRPGQSPQLLIYRMSNLNSGVPDRFSGSGSGTDFTLRISGVEPEDVGVYYCMQHLEYPLTFGAGTKLEIKGGGGSGGGGSGGGGSQVQLVQSGPELIKPGGSVKMSCKASGYTFTSYVMHWVRQKPGQGLEWIGYINPYNDGTKYNEKFKGRATLTSDKSSSTAYMELSSLRSEDSAVYYCARGTYYYGSRVFDYWGQGTTVTVSSGGGGSEVQLVESGGGLVQPGGSLRLSCAASGFTFNTYAMNWVRQAPGKGLEWVARIRSKYNNYATYYADSVKDRFTISRDDSKNTLYLQMNSLRAEDTAVYYCVRHGNFGNSYVSWFAYWGQGTMVTVSSASTKGPSVFPLAPSSKSTSGGTAALGCLVKDYFPEPVTVSWNSGALTSGVHTFPAVLQSSGLYSLSSVVTVPSSSLGTQTYICNVNHKPSNTKVDKKVEPKSCPPCS
chain 2: DVVMTQSPSSIPVTLGESVSISCRSSKSLQNVNGNTYLYWFQQRPGQSPQLLIYRMSNLNSGVPDRFSGSGSGTDFTLRISGVEPEDVGVYYCMQHLEYPLTFGAGTKLEIKGGGGSGGGGSGGGGSQVQLVQSGPELIKPGGSVKMSCKASGYTFTSYVMHWVRQKPGQGLEWIGYINPYNDGTKYNEKFKGRATLTSDKSSSTAYMELSSLRSEDSAVYYCARGTYYYGSRVFDYWGQGTTVTVSSGGGGSQAVVTQEPSLTVSPGGTVTLTCRSSTGAVTTSNYANWVQQKPGQAPRGLIGGTNKRAPGTPARFSGSLLGGKAALTLSGVQPEDEAEYYCALWYSNLWVFGGGTKLTVLGQPKAAPSVTLFPPSSEELQANKATLVCLISDFYPGAVTVAWKADSSPVKAGVETTTPSKQSNNKYAASSYLSLTPEQWKSHRSYSCQVTHEGSTVEKTVAPTECPPCS
notes: One anti-CD19 scFv is fused at the N-terminus of the VH and a second at the N-terminus of the VL of an anti-CD3 Fab fragment; also called CD19×CD3 MSAP ITAB2007; bispecific trivalent ITAB2007

Assays:
Assay in all cases: BLI (Octet), antigen-Fc captured on anti-human Fc (AHC) biosensor, MSAP in solution
[1] = target: T1, Recombinant Human CD19 Fc Chimera (R&D Systems, Inc) (human, UniProt P15391 20-291)
T1 construct: Bought reagent; also called huCD19.Fc; human CD19 antigen; Fc part of the bought chimera not given
T1 sequence (looked up): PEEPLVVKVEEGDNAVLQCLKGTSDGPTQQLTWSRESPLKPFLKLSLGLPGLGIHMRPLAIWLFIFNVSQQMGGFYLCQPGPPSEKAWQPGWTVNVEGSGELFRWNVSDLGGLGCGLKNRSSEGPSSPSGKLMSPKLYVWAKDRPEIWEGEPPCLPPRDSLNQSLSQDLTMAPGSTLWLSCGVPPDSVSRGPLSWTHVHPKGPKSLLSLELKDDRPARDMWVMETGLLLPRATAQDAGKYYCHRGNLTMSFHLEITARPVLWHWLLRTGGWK
Method: (§1) The expression of the CD3 antigen constructs has been described in U.S. Pat. No. 8,846,042. The CD3 antigen constructs or the CD19 antigen (Cynomolgus/Rhesus CD19 Protein (Fc Tag), Sino Biological. Inc; Recombinant Human CD19 Fc Chimera, R&D Systems. Inc) were diluted to 0.02 mg/mL with dilution (PBS), and then immobilized on an anti-Human Fc capture (AHC) biosensor. […] Control wells containing PBS only were also set up. The detection results were analyzed using ForteBio Data Acquisition and ForteBio Data Analysis software.

[2] = target: T2, Cynomolgus/Rhesus CD19 Protein (Fc Tag) (Sino Biological, Inc) (cynomolgus monkey (Cynomolgus/Rhesus), UniProt F7F486 20-292 (rhesus entry))
T2 construct: Bought reagent; also called cynoCD19.Fc; cynomolgus CD19 antigen
T2 sequence: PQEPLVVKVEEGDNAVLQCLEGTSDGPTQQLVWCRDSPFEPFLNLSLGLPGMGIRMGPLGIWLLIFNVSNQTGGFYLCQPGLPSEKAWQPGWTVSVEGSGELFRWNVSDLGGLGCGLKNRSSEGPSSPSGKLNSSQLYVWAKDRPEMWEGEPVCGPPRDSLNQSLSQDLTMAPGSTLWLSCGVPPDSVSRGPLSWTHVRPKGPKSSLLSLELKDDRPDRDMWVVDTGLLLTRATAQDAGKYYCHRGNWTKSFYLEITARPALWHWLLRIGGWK
Method: as §1

[3] = target: T3, cynomolgus CD3 antigen construct cynoCD3εAA 1-27.Fc (cynomolgus monkey; human, UniProt Q95LI5 22-48)
T3 construct: range 1-27; not shown: human IgG Fc
T3 chain (looked up): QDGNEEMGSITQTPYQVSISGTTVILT
Method: as §1

Binder	Kd [1]	Kd [2]	Kd [3]
B1	18.2 nM	29.6 nM	12.9 nM
B2	0.891 nM	8.91 nM	18.8 nM
